Assay results published in the supplement of paper PMC12042874.
± gives the uncertainty stated by the source.

Assay: amyloid nucleation score (Sup35N fusion, yeast selection) (log enrichment); library NNK3; higher = more nucleation; inactive = no reads after selection
How it was run: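 After 24 hours of induction with 100 μM copper sulfate, psi-negative yeast expressing peptides of 20 random codons fused to Sup35N were grown for 7 days at 30°C on medium lacking adenine and uracil. Input and output plasmid inserts were sequenced with Illumina, and sequences with under 100 input reads were discarded. Scores for nucleation are the DiMSum log enrichment of output over input reads, centred on the mode score of non-aggregating sequences.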

Amyloid nucleation score, -0.2 ± 0.81:
AGLSQNRSRIRSY

Amyloid nucleation score, 0.569 ± 0.3:
ALVAKVVIGSRW

Amyloid nucleation score, 2.31 ± 0.06:
AQKFSIWLCTTICINTDFDF

Amyloid nucleation score, 1.86 ± 0.053:
AIFFSFYRSFY

Amyloid nucleation score, 0.01 ± 1.2:
AWSGFE

Amyloid nucleation score, 1.5 ± 0.12:
ANMKINVVLLNDCGWGR

Amyloid nucleation score, 1.75 ± 0.084:
AFCLQYVCYAKLMGNVNNTC

Amyloid nucleation score, 0.314 ± 0.25:
AFFWCR

Amyloid nucleation score, -0.19 ± 0.81:
AYVSHINDMPAFGPKSNKPS

Amyloid nucleation score, 1.65 ± 0.071:
AIYLSFRGNA

Amyloid nucleation score, -0.22 ± 1.5:
AVLGLMLPCFRARRAWIAPP

Amyloid nucleation score, -0.681 ± 0.96:
AKSPL

Amyloid nucleation score, 0.949 ± 0.25:
CEEPFETIS

Amyloid nucleation score, 1.67 ± 0.073:
ALVAPKAGAFMSLKVQLGMP

Amyloid nucleation score, -0.275 ± 1.1:
ARRDLFHWCRRQSCVYN

Amyloid nucleation score, 0.55 ± 0.16:
CDRRFYRMNLCKNPFNYRFG

Amyloid nucleation score, 0.965 ± 0.17:
AGEKPNSIFYSTHSSRSFSN

Amyloid nucleation score, -0.956 ± 2.4:
ASCSGIC

Amyloid nucleation score, -0.156 ± 1.1:
CGIRHTVLVVSRVGGYVWCL

Amyloid nucleation score, -0.261 ± 0.88:
CGWMEGLCQLYENKEMKHWH

Amyloid nucleation score, 0.067 ± 0.77:
CHLCGMYSVCFLARSRLVLE

Amyloid nucleation score, 2.79 ± 0.076:
ALCMIYFW

Amyloid nucleation score, 0.51 ± 0.31:
CEFWNKYSNLWIWGWL

Amyloid nucleation score, 2.4 ± 0.067:
CFCDVMQFWM

Amyloid nucleation score, inactive:
AALAY
AASEPGSKRLEAAQWVPVAS
AASIFGNSV
AAVWRVVKRNLCHEIGERTA
ACANYCGSFSTTTAEYDVPS
ACFLVFGIYQEVMHDCIGRS
ACGRVNVCYLTPMVRHSGRS
ACLLVRYHTDDSNKRCSL
ACNSPEVLQNLQRLRSCGRR
ACYITTFLGADSVVEYQNDE
ADIGPHRCVLGAMMRWCRQT
ADLPCDVATNLVPLTRSSQM
ADNTDMKMTEVGTHHNGNQN
ADWRIKFYGCGDLGLFWES
AEGYFRSLSTIRGSLLDLSA
AEHYVRYRRCSATWRICWMY
AELSIADPTEMSGRVFACNV
AETQCSSYDLCDTPSLFDVR
AEVPSFECFTVPVFLRSIAV
AEYKNGTLRRRTRRVKSRRI
AFKMVLIGFMSMVERSNVHG
AFLFTLL
AFTRQIIWRDGGERPPWMRV
AFVNLYGKSARQSRQPMA
AGGCFISARSIRNCAHMLSR
AGKKLSRITTWSNTLLDPKS
AGNGPLSIYPMILMWMRVGR
AGRNMSLCNLHLILLCTSKC
AGWNMLVMTLCSTLFSQY
AHDRIFWNGPYNRISYAAFR
AHRCFFHLSRHVRKYAIRQR
AIFTFVPLSPTRTHGWDHCR
AIIDYFMM
AIISWQTLMWLYL
AINDMRPVKSRGGVVELYML
AISGIPESIVMLSYFRL
AITHL
AKATMPIT
ALGKRSLLR
ALLFLIERALCPSCK
ALSMLTG
ALWYENDCRWLDEVHRARTG
ALYTCMNLSYPLHSEFVTPR
AMNPLRLGLWSYNRLAWNMS
AMVTVELSDNYFWNLHTVAS
ANAVLKIFTSVMGSVNS
ANLADKILFFGSPCRVMHPV
ANPFFSLDK
ANSTAAVKSLGRV
ANVHNTENLRGLILCRRLLH
APLEFLSSLDWIRPELALTF
APPGFFIIVMSCWCYITRAL
APSYISRFVLLTDMPEAQTL
APWYVNWGMYNCEWGRGS
AQALRSVPEVWGEFTRSS
AQEYRMQHRLGGL
AQILSYVVSYSDPERHFSVM
ARAYRDQGWPEKEIAQHK
ARFMC
ARLFKGYSVVLCLCVSHR
ARLHVILCDGCHVRMCPEMG
ARMVVVLKRFCGVCMMSLFL
ARYDRS
ASAEEGWQNCEK
ASENLAEVLIVT
ASQFRCDHCMPRLKGETMET
ASRIDINRIWFVFWIQAIKS
ASSRSHPV
ASSSNGIVTFNNPR
ASTSD
ASVKGDRDDELSIKYVFGVG
ATCRRFTLVQPSYLVPCEPY
ATDNVCVI
ATVTWHYAAWTWLGFRPSSL
AVASSRYNLEYLSRSLCVMS
AVIWGEAPRIFLTCGALRRE
AVLHMSCNWDKQFYNLLCFC
AVQHIVEFILICQMFTYTHH
AVSTTTSMVINRLRACKYAY
AVTYNGYDHYYRDVARHCLR
AWFTEVYFKPSFRKR
AWGYYPSLCGKEDVYSWGWG
AWRCLGSYCMRLRVSIKSQ
AWRRSSEGYRFGNDYVTRAT
AWVDWKWRNGRSLAS
AWWYGLSMYIKKCILGSRFE
AYLTI
AYSDFRLTLSSYIVRANETC
AYSFNSFRASGRHLWFTVCP
AYVRLKRCWDTFWLRI
CAKLLYGCDTSFREWMVGAE
CANANVP
CANNYGGMLRECQVSGYSCM
CASSNRRESSYVLYSQWDIG
CCMVVTQYYARMMVWGNRPY
CCTIIRAYVVRELAHINNSW
CCYLLHGGRILMIVVMSHHL
CDAHSLSMLRVQIK
CDRLIVHLFSHLDSGSSVVL
CDVVSSDMVFDLS
CDWRESVFRRAVTLPVALWM
CEFRIFNWSFCSKRVGLRYV
CEHCMYNRKPR
CELANFKCLLGSQMFSEPLG
CESDEH
CFFEVKRSHSIRVFRIGCGV
CFFSRFILYPSLTLYMTMLR
CFLMN
CFMSLLNF
CFNNRARP
CFRCFGKGCHILAYGVYC
CFRCS
CGGIAFRNFLMNSGMPLEWK
CGRNAAVSNARRCCSSKVCM
CHDVLIKWNMVCTSVVEGEH
CHNKKWVDFNVCFYNMLSFY
CHPGASSTGSKLTSRNCL
CHQKMSVA
CIAYNMVSDYVSIGFNAGDM
CIFCRFFKVLVGHSYL
CIICFGPRNFESRRKQPDWR

Amyloid nucleation score, -0.111 ± 0.21:
AYYNMK

Amyloid nucleation score, 0.88 ± 0.094:
ATSCILMMDLSRYYVGLYHR

Amyloid nucleation score, 0.725 ± 0.18:
ANSNAFIQSDHIRYLLDFAM

Amyloid nucleation score, -0.364 ± 0.8:
AWRAISDKTDGGSYDKSVIV

Amyloid nucleation score, 0.792 ± 0.18:
AEQCEPLWCFWKKRSL

Amyloid nucleation score, 2.14 ± 0.085:
APKCNSTMCSCALMTLFLIS

Amyloid nucleation score, -0.854 ± 1.7:
ADYLLSYACQSTLSHQKKRP

Amyloid nucleation score, -0.432 ± 1:
AVSSSLNWLGFVRISGSRY

Amyloid nucleation score, 0.401 ± 0.21:
ADNIGRFVYCYCSVLQTTIS

Amyloid nucleation score, 1.74 ± 0.054:
CAVFRVSRISINTDAIFITC

Amyloid nucleation score, 2.18 ± 0.058:
CCVSVKYWYYV

Amyloid nucleation score, 1.38 ± 0.091:
CCFVRWGFGC

Amyloid nucleation score, 0.377 ± 0.27:
AVVIGDDEVVSDYCLLL

Amyloid nucleation score, 0.804 ± 0.13:
AAPKGGYPVLCCSVRTGRN

Amyloid nucleation score, 0.054 ± 0.36:
CDHFQWYFLDRCLSVRCMIF
